In patent publication US20250381293A1, “PEPTIDES AND MAGNETIC PARTICLE-PEPTIDE CONJUGATES FOR PREVENTION OR TREATMENT OF GLAUCOMA” (THE GOVERNORS OF THE UNIVERSITY OF ALBERTA, priority 2022, published 2025):

Columns and labels:
[1] = tested on: XFS materials; test: Ex vivo targeting of Cy5-labeled phage-displayed peptides on exfoliative human lens capsules; assay type: binding; conditions: 1 hr, 37° C., human aqueous humor/BSS; fluorescence microscopy
Experimental: Amplified phages (1×10^11 pfu) were resuspended in 0.3 M NaHCO3 (pH 8.6) containing 10 μg Cy5 dye and incubated for 2 hr at room temperature in the dark. Subsequent to phage/fluorophore incubation, 40 μl of 10 mM lysine was added to interact with remaining free Cy5 dye molecules in the solution. The volume of the reaction mixture was subsequently brought up to 1 ml with PBS buffer, and the phages were purified with two rounds of 20% (w/v) polyethylene glycol-8000, 2.5 M NaCl precipitation. The labeled phages resuspended in BSS solution.
Fluorescently labeled phages carrying identified targeting peptides as well as wild-type phages without peptide-encoding inserts were incubated with exfoliative human lens capsules in a 100-μl solution containing equal volumes of human aqueous humor fluid and BSS solution. The incubation was allowed to continue for 1 hr at 37° C. After serially washing with BSST buffer (0.1, 0.3%), three times each, the lens capsules were mounted on microscope slides and were examined under an Olympus IX81 inverted fluorescence microscope (Olympus Corporation, Tokyo, Japan). The location of XFS materials on the surface of the lens capsule was confirmed in bright-field mode prior to fluorescence imaging.

[2] = tested on: hTM cells; test: DNA fragmentation analysis (apoptosis); assay type: cell-based, human; conditions: free peptide solution, 24 hr (0.5 mM, elsewhere in the source)
Experimental: Effect of peptide-particle conjugates and peptide solutions on the induction of apoptotic DNA fragmentation was analyzed in hTM cells. […] Cells were recovered from wells using a cell scraper. DNA was isolated and purified using DNeasy blood and tissue kit (Qiagen). Extracted DNA molecules from control and treated hTM cells were subjected to 2% agarose gel electrophoresis and visualized by SYBR green staining.

[3] = tested on: hTM cells; test: Live/dead cell viability assay on hTM monolayers; assay type: cell-based; conditions: free peptide solution, 1 mM; mean±1 SD, n≥3
Experimental: Primary human trabecular meshwork (hTM) cells were obtained from ScienCell Research Laboratories (Carlsbad, CA), and maintained in TMCM medium (ScienCell, no. 6591). Primary cell culture was passaged according to the manufacturer's instructions. Passage three cells were seeded on tissue culture plates coated with gelatin and media were refreshed every 2-3 days. These monolayer cultures were used in subsequent experiments upon reaching 95-100% confluency.
Cell viability was further assayed using LIVE/DEAD® viability/cytotoxicity kit (Molecular Probes). Monolayers of hTM cells were treated in triplicates with peptides alone in solution (1 mM) and in conjugation with MPs (100 μg). Cell viability was then assessed according to the manufacturer's protocol. The kit is based on calcein AM/ethidium homodimer-1 (EthD-1) system, where calcein AM detects cellular esterase activity of live cells and EthD-1 stains nuclei of dead cells. A similar live/dead assay was used to investigate the effect of MP-peptide conjugates on the viability of hTM cells in the presence of the rotating magnetic field. […] The viability of hTM cells was then assessed as described above. […] The cells were treated with the rotating magnetic field for 10 min and then analyzed using live/dead assay as described before. […]

## LPSYNLHPHVPP [p-LPS]
[1]
  binding of Cy5-labeled phages to XFS materials on lens capsule: specific binding to XFS materials
[2]
  apoptotic chromosomal DNA fragmentation: chromosomal DNA remained intact
[3]
  % of live cells: 99.12 ± 0.94%

## IPLLNPGSMQLS [p-IPL]
[1]
  binding of Cy5-labeled phages to XFS materials on lens capsule: specific binding to XFS materials
[2]
  apoptotic chromosomal DNA fragmentation: chromosomal DNA remained intact
[3]
  % of live cells: 99.00 ± 0.37%
